For the test, the target named is T1, His-DAPK1 (848–1288 aa) (UniProt P53355 848-1288).
T1 construct: source: purified recombinant protein
T1 sequence (looked up): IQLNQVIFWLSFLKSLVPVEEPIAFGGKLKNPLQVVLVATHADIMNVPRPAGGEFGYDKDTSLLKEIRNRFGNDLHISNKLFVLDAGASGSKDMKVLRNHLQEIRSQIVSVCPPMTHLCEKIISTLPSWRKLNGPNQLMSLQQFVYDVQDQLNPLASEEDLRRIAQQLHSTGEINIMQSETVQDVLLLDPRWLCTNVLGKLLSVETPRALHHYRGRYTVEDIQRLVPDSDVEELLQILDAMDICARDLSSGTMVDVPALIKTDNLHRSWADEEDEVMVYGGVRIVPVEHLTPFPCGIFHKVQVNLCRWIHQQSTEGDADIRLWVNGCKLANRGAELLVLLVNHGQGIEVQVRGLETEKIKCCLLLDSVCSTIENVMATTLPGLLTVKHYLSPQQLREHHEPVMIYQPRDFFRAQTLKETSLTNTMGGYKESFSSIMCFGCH
The test is described as follows: pull-down; purified His-DAPK1 (848–1288 aa) incubated with GST or GST-SENP1 proteins; immunoblot with an anti-His antibody. Conditions: both partners purified.

B1: GST-SENP1 (1-200 aa) (domain or fragment, UniProt Q9P0U3 1-200, looked up)
chain: MDDIADRMRMDAGEVTLVNHNSVFKTHLLPQTGFPEDQLSLSDQQILSSRQGHLDRSFTCSTRSAAYNPSYYSDNPSSDSFLGSGDLRTFGQSANGQWRNSTPSSSSSLQKSRNSRSLYLETRKTSSGLSNSFAGKSNHHCHVSAYEKSFPIKPVPSPSWSGSCRRSLLSPKKTQRRHVSTAEETVQEEEREIYRQLLQM
notes: Sentrin-specific protease 1 (SENP1), N-terminal region, residues 1-200; also called N-terminal region (1-200 aa) of SENP1; source: E. coli, purified GST fusion protein
Consider B1, for which the binding result was “binds”.
